The target of test [1] is T1, amphyphisin SH3 (AMPH_HUMAN), P49418.
T1 chain: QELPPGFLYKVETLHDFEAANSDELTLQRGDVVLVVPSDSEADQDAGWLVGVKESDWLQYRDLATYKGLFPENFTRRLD
As to the kind of experiment: SPOT array.

Test [2] deals with endophilin SH3 (SH3G2_HUMAN), Q99962. As to the kind of experiment: SPOT array.

AAMHPRRPDGFDGL [Q04197 18-31]: the normalised SPOT signal, Boehringer light units (BLU); mean over the file's lines of this peptide in test [1] is 53.6; in test [2], 14.1.

Regarding ALKQLDRPEKGLSE [O14646 1427-1440], the normalised SPOT signal, Boehringer light units (BLU); mean over the file's lines of this peptide in test [1] came to 42.4; in test [2], 295.

Turning to GMEKIWRPNRVFSL [O60795 134-147], the results for the normalised SPOT signal, Boehringer light units (BLU); mean over the file's lines of this peptide in test [1] and in test [2] were 1120 and 175, respectively.

Consider GLWLPRRPARSVGS [Q9H427 273-286], for which the normalised SPOT signal, Boehringer light units (BLU); mean over the file's lines of this peptide stood at 8350 in test [1] and 1850 in test [2].

As for GLSGPSRPPPPPQA [Q9UEE5 25-39], the normalised SPOT signal, Boehringer light units (BLU); mean over the file's lines of this peptide turned out to be 78.2 in test [1] and 2950 in test [2].

GLLLLPRPGRPLDL [P13497 12-25]: the figures for the normalised SPOT signal, Boehringer light units (BLU); mean over the file's lines of this peptide in test [1] and in test [2] were 97.6 and 88.4, respectively.

Take GLEVPRRPGARTGP [Q9P1Z1 1-14]: the normalised SPOT signal, Boehringer light units (BLU); mean over the file's lines of this peptide in test [1] worked out at 29.7; in test [2], 626.

Consider GKNRPLRPSRRRQL [Q9H5Z2 504-517], for which the normalised SPOT signal, Boehringer light units (BLU); mean over the file's lines of this peptide is 7430 in test [1] and 1860 in test [2].

Turning to GLSGLKRPSSSAST [Q9P2Q0 476-489], the values for the normalised SPOT signal, Boehringer light units (BLU); mean over the file's lines of this peptide in test [1] and in test [2] were 32.5 and 34.9, respectively.

Turning to GKPNPRRPKDKMSA [O95985 843-856], the normalised SPOT signal, Boehringer light units (BLU); mean over the file's lines of this peptide in test [1] came out at 13.6; in test [2], 87.3.

For the molecule GKSHPKRPNSQSQH [Q9H6W1 84-97], the normalised SPOT signal, Boehringer light units (BLU); mean over the file's lines of this peptide in test [1] turned out to be 45.5; in test [2] it was 0.

As to GLGELLRPYRSASS [Q14526 480-493], the normalised SPOT signal, Boehringer light units (BLU); mean over the file's lines of this peptide in test [1] was 367; in test [2], 112.

For the molecule ALSHFRRPDVSVQG [Q06265 140-153], the values for the normalised SPOT signal, Boehringer light units (BLU); mean over the file's lines of this peptide in test [1] and in test [2] were 19.7 and 50.3, respectively.

As to GLRRPEKPPYSYIA [Q12947 93-107], the normalised SPOT signal, Boehringer light units (BLU); mean over the file's lines of this peptide in test [1] was 34.9; in test [2] it was 285.

Take GLSTLQRPLKDVTD [Q9H4V5 197-210]: the normalised SPOT signal, Boehringer light units (BLU); mean over the file's lines of this peptide in test [1] is 108; in test [2], 90.7.

GKGRPDRPARRPSP [Q9ULT2 465-478]: the normalised SPOT signal, Boehringer light units (BLU); mean over the file's lines of this peptide in test [1] was determined as 2720; in test [2], 8700.

With GKLPPKRPELPPTL [Q9NVN2 625-638], the results for the normalised SPOT signal, Boehringer light units (BLU); mean over the file's lines of this peptide in test [1] and in test [2] were 30.7 and 205, respectively.

For GKVVPLRPPPPPKS [Q9UHN6 29-43], the values for the normalised SPOT signal, Boehringer light units (BLU); mean over the file's lines of this peptide in test [1] and in test [2] were 499 and 9090, respectively.

For ALHVPAKPPRAAAA [Q8WXD9 1334-1348], the normalised SPOT signal, Boehringer light units (BLU); mean over the file's lines of this peptide was 4080 in test [1] and 526 in test [2].

With GLGSPERPPKTSPG [Q9H6F5 54-68], the normalised SPOT signal, Boehringer light units (BLU); mean over the file's lines of this peptide is 122 in test [1] and 508 in test [2].

For the molecule GLLSLRRPAPRRLE [Q9HCE9 329-342], the normalised SPOT signal, Boehringer light units (BLU); mean over the file's lines of this peptide in test [1] was found to be 13.3; in test [2] it was 504.

Consider GNAGPRRPPGDPST [Q9C095 222-236], for which the normalised SPOT signal, Boehringer light units (BLU); mean over the file's lines of this peptide turned out to be 37.1 in test [1] and 75.8 in test [2].

As to GLPAPLRPERLAPV [O94850 125-138], the normalised SPOT signal, Boehringer light units (BLU); mean over the file's lines of this peptide in test [1] was 2410; in test [2] it was 1890.

Regarding GNANIQRPSRKSVN [Q9NRA6 251-264], the normalised SPOT signal, Boehringer light units (BLU); mean over the file's lines of this peptide in test [1] stood at 3260; in test [2], 166.

Take GLGGPQKPPPHTEP [Q9H4M7 492-506]: the normalised SPOT signal, Boehringer light units (BLU); mean over the file's lines of this peptide in test [1] was 40.1; in test [2] it was 79.9.

For the molecule GKLKLKRPEQLQEV [O15082 431-444], the normalised SPOT signal, Boehringer light units (BLU); mean over the file's lines of this peptide was 32.6 in test [1] and 35.2 in test [2].

In the case of GKRPIKRPAYWRTE [Q9HAH2 675-688], the normalised SPOT signal, Boehringer light units (BLU); mean over the file's lines of this peptide in test [1] was determined as 3.7; in test [2], 12.8.

Take GIRRPEKPPYSYIA [Q12946 16-30]: the figures for the normalised SPOT signal, Boehringer light units (BLU); mean over the file's lines of this peptide in test [1] and in test [2] were 53.1 and 864, respectively.

The values are drawn from publication PMC314469, “Protein Interaction Networks by Proteome Peptide Scanning” (PLoS Biology, 2004).
